Assay results reported in article PMC6646356, “The AAA + ATPase TorsinA polymerizes into hollow helical tubes with 8.5 subunits per turn” (Nature Communications, 2019).

What was measured:
[1] = target: the molecule itself; assay: SEC; gel filtration of affinity-purified MBP-TorsinA; self-association, elution in the void volume
[2] = target: the molecule itself; assay: negative-stain electron microscopy; purified TorsinA variants without liposomes, diluted in ATP-containing buffer (HEPES/NaOH pH 8.0, NaCl, 10 mM MgCl2, ATP), 2% uranyl acetate stain; filament formation (self-polymerisation); MBP tag uncleaved or cleaved with 3C protease

B1: MBP-TorsinA (human TorsinA residues 51–332, N-terminally MBP-tagged) (domain or fragment, UniProt O14656 51-332, looked up)
chain: GQKRSLSREALQKDLDDNLFGQHLAKKIILNAVFGFINNPKPKKPLTLSLHGWTGTGKNFVSKIIAENIYEGGLNSDYVHLFVATLHFPHASNITLYKDQLQLWIRGNVSACARSIFIFDEMDKMHAGLIDAIKPFLDYYDLVDGVSYQKAMFIFLSNAGAERITDVALDFWRSGKQREDIKLKDIEHALSVSVFNNKNSGFWHSSLIDRNLIDYFVPFLPLEYKHLKMCIRVEMQSRGYEIDEDIVSRVAEEMTFFPKEERVFSDKGCKTVFTKLDYYYDD
notes: TorsinA, human, residues 51-332; MBP tag is cleavable by human rhinovirus 3C protease; uncleaved in this form; Forms helical polymers of no fixed size; also called MBP-tagged TorsinA; wild-type; source: E. coli LOBSTR(DE3) RIL, purified (amylose resin); not shown: MBP, N-terminal, kept
B1: binds [1].

B2: TorsinA H140N (domain or fragment, human, UniProt O14656 51-332, looked up)
chain: GQKRSLSREALQKDLDDNLFGQHLAKKIILNAVFGFINNPKPKKPLTLSLHGWTGTGKNFVSKIIAENIYEGGLNSDYVHLFVATLHFPNASNITLYKDQLQLWIRGNVSACARSIFIFDEMDKMHAGLIDAIKPFLDYYDLVDGVSYQKAMFIFLSNAGAERITDVALDFWRSGKQREDIKLKDIEHALSVSVFNNKNSGFWHSSLIDRNLIDYFVPFLPLEYKHLKMCIRVEMQSRGYEIDEDIVSRVAEEMTFFPKEERVFSDKGCKTVFTKLDYYYDD
notes: TorsinA, human, residues 51-332; source: E. coli LOBSTR(DE3) RIL, purified (amylose resin)
B2: binds [2].

B3: TorsinA K174E (domain or fragment, human, UniProt O14656 51-332, looked up)
chain: GQKRSLSREALQKDLDDNLFGQHLAKKIILNAVFGFINNPKPKKPLTLSLHGWTGTGKNFVSKIIAENIYEGGLNSDYVHLFVATLHFPHASNITLYKDQLQLWIRGNVSACARSIFIFDEMDEMHAGLIDAIKPFLDYYDLVDGVSYQKAMFIFLSNAGAERITDVALDFWRSGKQREDIKLKDIEHALSVSVFNNKNSGFWHSSLIDRNLIDYFVPFLPLEYKHLKMCIRVEMQSRGYEIDEDIVSRVAEEMTFFPKEERVFSDKGCKTVFTKLDYYYDD
notes: as for B2
B3: binds [2].

B4: TorsinA K174A (domain or fragment, human, UniProt O14656 51-332, looked up)
chain: GQKRSLSREALQKDLDDNLFGQHLAKKIILNAVFGFINNPKPKKPLTLSLHGWTGTGKNFVSKIIAENIYEGGLNSDYVHLFVATLHFPHASNITLYKDQLQLWIRGNVSACARSIFIFDEMDAMHAGLIDAIKPFLDYYDLVDGVSYQKAMFIFLSNAGAERITDVALDFWRSGKQREDIKLKDIEHALSVSVFNNKNSGFWHSSLIDRNLIDYFVPFLPLEYKHLKMCIRVEMQSRGYEIDEDIVSRVAEEMTFFPKEERVFSDKGCKTVFTKLDYYYDD
notes: as for B2
B4: binds [2].

B5: TorsinA (human, residues 51–332), MBP cleaved with 3C protease (domain or fragment, UniProt O14656 51-332, looked up)
chain: GQKRSLSREALQKDLDDNLFGQHLAKKIILNAVFGFINNPKPKKPLTLSLHGWTGTGKNFVSKIIAENIYEGGLNSDYVHLFVATLHFPHASNITLYKDQLQLWIRGNVSACARSIFIFDEMDKMHAGLIDAIKPFLDYYDLVDGVSYQKAMFIFLSNAGAERITDVALDFWRSGKQREDIKLKDIEHALSVSVFNNKNSGFWHSSLIDRNLIDYFVPFLPLEYKHLKMCIRVEMQSRGYEIDEDIVSRVAEEMTFFPKEERVFSDKGCKTVFTKLDYYYDD
notes: TorsinA, human, residues 51-332; Helical polymer, 8.5 subunits per turn; nucleotide modeled as ATP; also called TorsinA filaments; TorsinA polymers; source: E. coli LOBSTR(DE3) RIL, purified (amylose resin), MBP cleaved with 3C protease during dialysis; not shown: MBP, N-terminal, cleaved
B5: binds [2].
